US7514534 (DYAX, dated 2009)

T1: MMP-26 catalytic domain, tagged with hexa-histidine (human, UniProt Q9NRE1 90-261)
T1 construct: the forward primer adds Met-Ala before it; also called MMP-26 target protein; Matrilysin-2; not shown: Also any N-terminal residues added by the forward primer (Met-Ala according to our card; the primers were not visible to me)
T1 sequence: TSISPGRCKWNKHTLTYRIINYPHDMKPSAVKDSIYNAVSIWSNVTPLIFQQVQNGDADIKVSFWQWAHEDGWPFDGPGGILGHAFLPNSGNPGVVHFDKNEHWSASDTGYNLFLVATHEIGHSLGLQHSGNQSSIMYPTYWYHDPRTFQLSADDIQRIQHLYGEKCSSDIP


How the values were obtained:
MMP-3 = biological target: T2, MMP-3 (UniProt P08254 100-477, limits assumed); assay: cross-reactivity ELISA on coated MMP
T2 construct: also called stromelysin-1

MMP-9 = biological target: T3, MMP-9 (UniProt P14780 107-707, limits assumed); assay: cross-reactivity ELISA on coated MMP
T3 construct: also called gelatinase

[1] = biological target: T1, MMP-26 catalytic domain, tagged with …; assay: bead-based ELISA, MMP-26 on nickel beads, IgG4 culture supernatant
Method: Reformatted and expressed full-length MMP-26 binding IgG4 antibodies were tested for specificity in a bead-based ELISA. Approximately 1.25 μg of MMP-26 protein was bound to nickel-coated magnetic beads (Novagen) which had been pre-blocked with phosphate buffered saline containing 5% (w/v) nonfat dry milk and 0.05% (v/v) Tween-20. The beads were washed in phosphate buffered saline containing 0.05% (v/v) Tween-20 (PBS-T) and 100 uls of unpurified cell culture supernatant containing transiently produced MMP-26-binding antibodies was added and incubated on a rotator for sixty minutes. The beads were washed with PBS-T and MMP-26-binding antibodies were detected with an HRP-conjugated anti-human secondary antibody. Data is expressed in fold over background where background consists of beads, blocking agent, and culture supernatant containing target antibody (Table 2; in this table, Results shown as fold over background (F>B) where background consists of beads, blocking agent, and culture supernatant).

T3 sequence (P14780 107-707 limits assumed): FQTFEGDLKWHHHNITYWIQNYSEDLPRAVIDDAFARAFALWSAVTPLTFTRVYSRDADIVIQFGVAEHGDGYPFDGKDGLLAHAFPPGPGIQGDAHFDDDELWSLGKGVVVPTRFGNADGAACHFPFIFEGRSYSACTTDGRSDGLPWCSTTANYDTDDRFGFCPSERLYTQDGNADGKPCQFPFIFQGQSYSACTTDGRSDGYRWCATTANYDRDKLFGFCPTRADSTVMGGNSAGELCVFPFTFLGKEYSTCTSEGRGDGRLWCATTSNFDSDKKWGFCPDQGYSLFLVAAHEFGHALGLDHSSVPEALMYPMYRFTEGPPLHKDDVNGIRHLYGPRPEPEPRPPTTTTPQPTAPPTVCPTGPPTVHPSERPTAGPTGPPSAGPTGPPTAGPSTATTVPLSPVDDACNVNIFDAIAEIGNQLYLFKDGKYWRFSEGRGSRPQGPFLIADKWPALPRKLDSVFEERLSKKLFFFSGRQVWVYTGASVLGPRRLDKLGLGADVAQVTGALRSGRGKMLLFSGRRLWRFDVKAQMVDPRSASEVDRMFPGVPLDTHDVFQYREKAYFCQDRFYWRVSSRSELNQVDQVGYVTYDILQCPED
T2 sequence (P08254 100-477 limits assumed): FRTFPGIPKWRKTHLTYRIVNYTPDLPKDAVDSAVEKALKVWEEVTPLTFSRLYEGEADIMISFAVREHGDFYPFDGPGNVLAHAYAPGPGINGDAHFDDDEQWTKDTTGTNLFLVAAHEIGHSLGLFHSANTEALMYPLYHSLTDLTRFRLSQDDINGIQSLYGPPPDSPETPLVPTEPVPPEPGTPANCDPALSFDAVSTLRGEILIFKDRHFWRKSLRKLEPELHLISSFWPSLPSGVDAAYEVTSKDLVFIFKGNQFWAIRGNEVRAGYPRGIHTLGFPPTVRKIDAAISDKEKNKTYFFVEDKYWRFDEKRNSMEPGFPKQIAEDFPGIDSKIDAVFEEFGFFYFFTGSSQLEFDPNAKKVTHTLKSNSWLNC

binding result (MMP-3)	binding result (MMP-9)	F > B (fold over background) [1] [fold over background]	Binder
no binding (tested: 2 µg/ml)	no binding (tested: 2 µg/ml)	3	D08 (antibody, human IgG4, V domains shown, whole human IgG4) VH: EVQLLESGGGLVQPGGSLRLSCAASGFTFSFYAMWWVRQAPGKGLEWVSRIYSSGGKTWYADSVKGRFTISRDNSKNTLYLQMNSLRAEDTAVYYCARVGMSTYAFDIWGQGTMVTVSS VL: DIQMTQSPSSLSASVGDRVTITCRASQSISDYLNWYQQKPGKAPDLLIYAASSLQSGVPSRFSGSGSGTDFTLTVSSLQPEDFATYFCQQSYSIPLTFGGGTKVEITR
no binding (tested: 2 µg/ml)	no binding (tested: 2 µg/ml)	1.94	A08 (antibody, human IgG4, V domains shown, whole human IgG4) VH: EVQLLESGGGLVQPGGSLRLSCAASGFTFSVYDMPWVRQAPGKGLEWVSVIYPSGGFTRYADSVKGRFTISRDNSKNTLYLQMNSLRAEDTAVYYCAADPTIQLWAYYYGMDVWGQGTTVTVSS VL: QSVLTQPPSVSGTPGQRVTISCSGGYPNMGSNYAHWYQQLPGTAPKLLIYNDNQRPSGVPDRFSGSKSGTSASLAISGLRSEDEADYYCAAWDDSLSGPVFGGGTKLTVLG
no binding (tested: 2 µg/ml)	no binding (tested: 2 µg/ml)	5.4	A06 (antibody, human IgG4, V domains shown, whole human IgG4) VH: EVQLLESGGGLVQPGGSLRLSCAASGFTFSPYHMGWVRQAPGKGLEWVSGIYPSGGWTNYADSVKGRFTISRDNSKNTLYLQMNSLRAEDTAVYYCARDGYSSGWFRYWGQGTLVTVSS VL: not shown
no binding (tested: 2 µg/ml)	no binding (tested: 2 µg/ml)	4.3	D09 (antibody, V domains shown, whole human IgG4) VH: EVQLLESGGGLVQPGGSLRLSCAASGFTFSHYNMHWVRQAPGKGLEWVSGIVSSGGNTGYADSVKGRFTISRDNSKNTLYLQMNSLRAEDTAVDYCARVVRYSSGWYYWFDPWGQGTLVTVSS VL: not shown
no binding (tested: 2 µg/ml)	no binding (tested: 2 µg/ml)	2.48	A05 (antibody, human IgG4, V domains shown, whole human IgG4) VH: EVQLLESGGGLVQPGGSLRLSCAASGFTFSVYSMNWVRQAPGKGLEWVSYIVPSGGNTPYADSVKGRFTISRDNSKNTLYLQMNSLRAEDTAVYYCARDGAATVDLDYWGQGTLVTVSS VL: DIQMTQSPSSLSLSPGERATLSCRASQSVSSYLAWYQQKPGQAPRLLIYDASNRATGIPARFSGSGSGTDFTLTISSLEPEDFAVYYCQQRSNWPRTFGGGTKVEIKR
no binding (tested: 2 µg/ml)	no binding (tested: 2 µg/ml)	2.5	A09 (antibody, human IgG4, V domains shown, whole human IgG4) VH: EVQLLESGGGLVQPGGSLRLSCAASGFTFSWYDMYWVRQAPGKGLEWVSSIYSSGGYTAYADSVKGRFTISRDNSKNTLYLQMNSLRAEDTAVYYCAKDRDPCSRTTCYNWFDPWGQGTLVTVSS VL: QSELTQPPSASGTPGQRVTISCSGGSSNIGSNFVYWYRQLPGTAPKLLIYRNYQRPSGVPDRFSGSKSGTSASLAISGLLSEDEADYYCAAWDDNVGGVFGSGTKVTVLG
no binding (tested: 2 µg/ml)	no binding (tested: 2 µg/ml)	8.38	A07 (antibody, human IgG4, V domains shown, whole human IgG4) VH: EVQLLESGGGLVQPGGSLRLSCAASGFTFSEYNMMWVRQAPGKGLEWVSVISPSGGGTLYADSVKGRFTISRDNSKNTLYLQMNSLRAEDTAVYYCARDLNNSSPPDSNDAFDIWGRGTMVTVSS VL: QSELTQPPSASGSPGQSVTISCTGTSSDVGGYNYVSWYQQHPDKAPKLLIYEVTQRPSGVPDRFSGSRSGNTASLTVSGLQAEDEADYYCSSYAGRNNLYVFGPGTKVTVLG
